Data from the domain aggregation screens of Martell et al. (2025).

Assay: soluble fraction after stress (log2 fold change); higher = more stays soluble; pooled small domains, quantitative proteomics
Details: stress: 50 degC
Procedure, shortened: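 Quantitative proteomics served as the high-throughput read-out for pooled custom libraries of small protein domains. Each was stressed at 50°C. Aggregation propensity is expressed as the base-two log fold change in soluble protein after stress. A higher value means a larger share of the protein remains in solution.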

Sequence | soluble fraction (log2)
HMEILPAYRDIKKEALLGNINAEFKYVNLLLEHNYIEQAFNIIEDMKTRVDDNPEFEELKSRVADAYLMY | -1.38
HMEKKSKLVLAVLQGSDSDNTIRNLNERGFMVTVLSSTGGFLKKKSTTVMIGVEEDRLEEALDVLQKYAG | -0.295
HMIPNPMTDRELEVLGLLASGKTYKQVARALDLSQSTVRNHLHNVYHKLNVVDRAQAVIVSRENGW | -0.289
HMNQTEKSKITHNELLKAAHSLFIEQGFNHTTITDIVTRAGYSTGIFYKHYKTKTDILVELWTNYIE | -2.31
HMEEHSLRKQEMLRIIEALEQLTPKEKTVVVLYYFKGVLFKDIAMLLDVTEGRISQLHTAAMGRLKKLMD | -0.0471
HMDTIVVAARSIQARQTLTESDLRVEEQEIGAASDKYYTDIAEAVGLVSSRRLSPGQPILRTM | -0.28
HMTYGYFELKAKNLDSLKQFLKGIAQVESIEEENNGLKVFLKNELESEELSEKLAEAKIFVSHLAKKK | 0.0782
HMRNERDRQLYAAMEKLKAEYREALYLVYFENMSYRDAAAVMAQTEKQISNLVYRGKQSLKTILEQEGF | -2.65
HMSDFSNLNLLELNSSELDLLLRRASSQGLTQMDLLKMARSQGLSEADLIKVKGKIDTSESIKR | -0.0148
HMGKPTPASQVATRWLTGNLPESLPVAGPAPSFEALARTVSTDLHPRSVLQELVRLGVAEEANGVVTLRRQ | -0.00643
HMKVEIVRVVKDIHIGDEITKDMVRTVEVGGYNLPDGVVKDTATVIGRFASADMVPGDYIISSKIADAP | -0.121
HMRIDVWLAENGFAPSRQKAQDLIAAGRVFQTDPSGRRQKVSKASAAVDPALSPKIEVIPDPE | 0.161
HMPELTASDEADLKALVGGDQGFEQMANWARSNLGEEEINRFDAVVDSNNKDAIHMAIQAMQARMNA | 0.0174
HMDSALKDDLNAFVKKLDVESQTLFMRRYFLGESVSSLASRFEMSEDNVGVKLFRIRAKLKKYLTGKGYD | -2.28
HMVVVMEKNASSAEIEQVQERLRQAGFKIHLSQGVERTIIGAIGDRSQVDLGFLEALPGVEKVVPIMK | 0.0845
HMINIFKVKKAMEEIFASEWEDSPYTDQKISQILWSRGFSVSTGLVEKYRGQMGVPDANSRLNLN | -2.38
HMNEIEIHINKLFGKISDSKRKQELMQEITQNLNEKVSDLVSQGQTREQAVKKAIEDFGDIDDLKDELDN | 0.275
HMGLTRRAQLEVADANLKRLYPGMHQSWVTAIAEYLHSSYWRYINSLEPEYAASIQRVYEQHIDAM | 0.0529
HMSQLLHELLAHVLKDRIISGEWPAGSRIMSEHALQERYGVSRGTVRRALAQLVQEGLLVQRKGKGTFVTR | -1.65
HMHWDIAQADAKQEVMDSSDDKEAIERIQANMFKDPKDHDQEYANKILNDMIDEIKEKGLEAMQHKFAQE | -0.379
HMQEDQKTSIFDIEGVEKGVASVLSSIKVEIVSDLLEADMDDILKSGKISEDDLDGVYEAVQNFVER | 0.42
HMFQNPSQVVTTRVGELRAAIPTAQQGRITMGVAVVEDANSVRSVLISTSEPRGYLRPGVTLGPGETMV | 0.0203
HMSGLGELTPRELEVLELMAQGLSNSQIAGRLFLSGAAVAKHVSSIFSKLGFEPGDENRRVRAILAFLNR | -0.422

Sequence | soluble fraction (log2)
HMAEVGDFTLAELIKVLFNEAGVLKAPVELRNDNTGGLQYRVGAYTDSETGWETIASIADLKGA | -0.436
HMGVDKLTPREREVLALMAQGASNREIEGKLVLTAGAVSKHVANVFMKLGFSPEDENRRVKAVLAWLRTK | -1.05
HMDQHPYGEDSFRGDNPPAGFDIKGNEDSMKFHEPSSPWYGRTIAEVWFRSAAAAEAAGFVNAV | -0.113
HMSFFNGNQMKILRKKLQLNQEEMGEKLGIKKSYVSQLENNRKEITEEIDQILQELEQEYQDKM | -0.323
HMRVDRSALDSIPGVGPGRKRTLLHHFGSARAVEASGLADLESIRGISKALARKIYDFFHPE | -1.38
HMLTAHEAILKELRKMLLTGVLSPGEAVRPEIIGESFGVSAVPVREALRILEGEGQVLNRPHKGYVVT | -0.568
HMGYDVAEVKFRLIKLLRDSKIGISGVEISERLGINRVTMTKYLNIFSAEGVIGEKNIGNVNLWFVYEGIE | -1.68
HMETKPTELMLDVHKLRIGMFVYLDLGWMDHPFPLNRFKISTNAQIEQIKGLRLKQVKVMTALSDPASLL | -3.19
HMTAPELGIRQDGNTLVIFWPSSVTGYVLKSADAVDTPPASWTSVTHTTVGDEHRAEITPTGNSRFFRLV | -0.267
HMARKTIFHSLLGELEQRIGRLPAGTILPAEQALADEYGVSKPTLRRALAELAEHGLITKENGIGSVVI | -0.45
HMSSWMTKDGKIKPISKWAGVPMTSQQQADYAAGKVVELTNIPDKQGQLNTVYLKFNPEKQRPTTSLNDPR | 0.134
HMAIDINKIYSEIKKKIPNQDNHIKEILSIIWRDFNNYQNIKSRSILINGEKSSPKKEIFNIIEDNINIPV | 0.0154
HMEAAETAVVTGTIVNIRSGPTLDFEAFAQVKQGDRLPVLDKFYNWYYVKLPSGVNGWISGQLVRIEQ | -0.25
HMFMSKTAMVAIISEADKYGLFNIPEGLSVEKTADEIFEGHIEVDFDKLKNELDFVYKNEALEKQFQEN | -0.534
HMNTKHVFIIEQDDEKKRLDIFLVEKLQDSRSFLKKGIVEGWVKVNESVVKPNYKLKQKDQITVIIPP | -0.278
HMEENIKKDIEVPNIEGLTIDEAKKRLKEVNLNISIEDMEEKEGTEIITQQLPKAGIKVKEGVAIIAY | 0.0824
HMSDHSSLAGKEGVAVTPLRPAGTAEIDGKRMDVVTMGDYIKAGDHIKVVKVEGNRIIVAKN | 0.0433
HMLDEPPVSQTLTTYDREHMALYLRLLDSARDGADWREAVQILFGLDPTRDPLRSRHVHDTHLARARWM | -0.131
HMVVTRVKAIDVVNIRKSDSETADKLGKAAVGDEFDLLEKKGNGWSKISYEGGEAYIKSEFLEPSE | 0.145
HMFQYEKIKDYILTGLEEGTWQAGDKIPSEAELVMSLNVSRMTVNRAVRELANSGLLVRIPGAGTFVATE | -0.575
HMKDMKISTKNLLQELAKNYPDQTSFRKNVIETTARAMGYTGKDFYPLLTTDNRVKIGTYDLATFLRSI | -0.718
HMADTSLDHLGVLVRHASDVDAWAEFFENRGVTLASQPRTHRDGARSFYVDDPDGNRVQVIYHPPI | -0.498
HMLTRYNVNYYYNGEILQRRKVAEGSAAERITYLSGSLEVTDWYTEADLLRKYDFTEPVTGDLNLYAFARI | -1.05

Sequence | soluble fraction (log2)
HMTIPNGTVVNGTVLEAREAGAYLVRVAGQTLTAQANLPLLVGQHFRAVWDSSGDIPVLRLSDAEQALLGK | 0.119
HMASISDRIRLLRAESHMTQEEFGRIFGISKPTVSFYEHGKSVPNDQIKTAIARYFGVSVDYLLGVTD | -1.89
HMVPEMIRDVISKSIRDMGVLPDHMQINERIALIQSLKKQQILGIKGAVAETARQLGISVPTVYRYMKKG | -0.362
HMGRGSEDEQMRGLAVILAEQKQIMQTLGVENEVVKPEQYINTLKRMAELNGFKDTDQFFSIPQ | 0.339
HMKPALFSADELNRLYRYGLSLTGERDRAYDLLQTALEKYLRQSQAPANAMRYVRKIMHNQFIDDYR | -1.13
HMLENYEGFKQKILKLTGIDLSSYKERQMRRRIDSLIHRNNYDDYDEYFKALTQNSNLYDEFINYLTI | -0.539
HMTVPMKILILEDEQRNAMRLIRLLNDIDTTFIIEGPLTNIKEAVDFFQSGKTTDLILADIRL | -0.147
HMAIDPLLDKGYEQYDKGEFTEAVKSFNRAIEIDPKNAEAHFLRAMTYQGLALSKLAVADLEKAIV | 0.136
HMPELTERELEVLLLTARGLPSSEAARLLFITRRTVAAHLTSIYGKLGARNKTEAVLAALKRGIIMLDQIG | -4
HMAPLQDENGDLTFSYNGKTYTVNVNSEEDRNSFAEDFNKENGKKFSWFKERAGLQHYVFYDTEM | -0.19
HMPQPDVIEVRQGIVTGMRPDRRTGWLRDEEDAAGEPKSFSIDVITPKGRTPGKGAVVTYTLTNGKITEVK | -0.0415
HMNVVDTGTDANYRVKISAVNLNMRLGPSTSYKSKGYITPGNYTIIKTSGDWGKVKETGYWVALKYTSKIN | -1.06
HMLRVGASVTANGKYWYDSYGSKPFGTANNLSTTVTRIVPGNPYPIHIGSYGWLQESQIQIT | -1.03
HMNDNQNKQMLWELLKDNRAFDNFDNKDYKTIIHLFNETVNTIDHRTPNLDLIKKNKIFIQDIMQKLSNL | -1.13
HMTSEVPVGSNVRIRASTLAGERDFEGTMLPPAGEGLTTLKLVNGYNLSYPSKDVLDIEFLGGAGE | 0.057
HMQVVDWSQVDKEDYLLATKRRAVSTGELKFLLLNNLTYDLTQTRFFKGMDASYYYEGYNLYQTGE | 0.122
HMGLSAEAARMAIQDAGLSKEDFAQKLGIKKVERVVEWEAGTSKPTFVQAQKIANATNIPFGYLFLVNPPK | 0.0125
HMESYTEEMLEKMSVSKLRTIARELQVDNMTREQIRFGKKTELIQNILEFTGREIENMQLYDK | -0.134
HMKSAIKQNILLYLSNKGVTSYEFYKISGVTRGILQQSNGISEDNIAKFLAYAPDVNIEWLLTGKGDMLKH | -1.32
HMLLQTRQRHEALAALGYFKGDVAAAWGPASEEALRAAQAAFGITVDGKWGPQTEDAIQGALQV | -0.213
HMNSNTIIINDIMTKIGKEVKNFTEIYSIILKALAEHGEEYVRTNTEYALKNFTGNFDIFLEQLLLK | -0.201
HMKNLKPSTEVILKELVKRYPDQTEFRKQQIVDVGQSFGYKGKDYGPIFDADNRVKIGTYDLAGLIVPLQR | -0.0461
